Where “and” joins values, the source holds several entries; their conditions need not be identical. Equal entries are not always repeated.

A short description of series [1]: Determination of the molar extinction coefficient (UV-VIS absorbance, linear regression). It is filed as physicochemical. Particulars: in PBS. The method, then: Two standard stock solutions containing the NIR agent in PBS at 1000 μM (sol I: 1.27 mg, 0.884 mL) and 1250 μM (sol II: 7.03 mg, 3.915 mL) were prepared. Diluted standard solutions were then prepared as reported in Table A by diluting the stock solutions in an appropriate volumetric flask using PBS. The absorbance of each standard diluted solution was measured without any further dilution.
The absorbance of each diluted standard solutions was measured and the molar extinction coefficient of DA364 was calculated from the slope of the linear regression reported in FIG. 1. The measured extinction coefficient in this condition was 208500 M^−1·cm^−1 (corresponding to 83% of the theoretical value reported for Cy5.5 dye: 250000 M^−1·cm^−1).

Another series relates to A431 tumor. Description: In vivo and ex vivo fluorescence imaging of tumor uptake (IVIS Spectrum). Set-up: species or system mice. The method, then:
(§1) A431 cells were collected and washed two times with PBS. Five million cells were resuspended in 0.1 mL of DMEM high glucose medium and subcutaneously injected in the right flank of all mice. Eleven days after A431 inoculation, U-87MG cells were collected and washed two times with PBS. Two million cells were resuspended in 0.1 mL of EMEM medium and subcutaneously injected in the left flank of same animals previously injected with A431 cells.
(§2) Three weeks after A431 tumor implantation five mice were administered with 1 nmol of DA364 for a total administration volume of 0.2 mL (inj. rate 1 mL/min). In vivo OI acquisitions have been carried out 5 min, 15 min, 30 min, 1 h, 2 h, 3 h, 4 h, 6 h, 24 h and 48 hours after intravenous administration of the fluorescent probe using the IVIS Spectrum optical imaging system (Perkin Elmer). During OI experiments animals were kept under 3-4% Sevofluorane gas anaesthesia (O2 97.0-96.0%). During anaesthesia animals body temperature has been stabilized at about 37° C. using a heated bed.
(§3) Following in vivo OI experiments, 48 hours after probes injection, animals were sacrificed. Tumors, liver, kidneys, heart and spleen were excised for ex vivo fluorescent signal measure on the whole excised tumor or organ.
(§4) Fluorescence intensity from U-87 MG and A431 tumors was measured in vivo together with the signal coming from the normal healthy tissues (background).
(§5) The fluorescent signal (expressed as Radiant Efficiency (RE): p/s/(μW/cm^2), where p is the photon count), was then measured on the excised ex vivo samples using the IVIS Spectrum optical imaging system (Perkin Elmer).

A further series has as its system U-87MG tumor. The description is as above. Set-up: species or system mice. On the procedure: as §1, §2, §3, §4, §5
Series [2] has as its target Human Serum Albumin (HSA) (Homo sapiens, UniProt P02768). The series is described as follows: In vitro binding assay towards human serum albumin (absorbance at 689 nm).
Description: Final solutions, containing 0.99 mM of the NIR agent and different amount of HSA, were incubated 1 h at room temperature before measurements. The absorbance of each solution was measured against a reference solution of HSA at the same concentration.
Series [3] in a line: Fluorescence quantum yield with integrating sphere. Format: physicochemical. As to conditions: excitation 625 nm, 15 min at RT. The method, then:
Fluorescence quantum yields (0%) measurements were performed on FluoroLog-31IHR-320 (HORIBA-JobinYvon) with integrating sphere accessory.
The measurements were carried out using an excitation wavelength of 625 nm and using a 450W Xenon Light Source. Detection was performed on TBX-04 detector from 645 to 850 nm (excitation and emission slit were 1.8 nm).
The fluorescence quantum yield of DA364 solution was measured both in human serum SERONORM (human-based control serum), NycomedPhama, batch 1109514) and in Phosphate Buffer Saline (PBS).
Solutions of the NIR agent were prepared in PBS and in human serum with absorbance lower than 0.1. Fluorescence (0%) measurements were carried out after incubation of the NIR agent at Room Temperature (RT) for 15 min.

Series [4] can be described thus: Normalized excitation and emission spectra. Format: physicochemical. From the text: The normalized excitation and emission spectra of the NIR agent in PBS (ex/em: 674/694; Stokes Shift: 20 nm) and in SERONORM (human-based control serum) (694/704, Stokes Shift 10 nm) are shown in FIG. 2. As shown in the figure, the interaction of the DA364 contrast agent with serum albumin promotes the shift of the emission maximum from 694 nm to 704 nm (in PBS and in SERONORM (human-based control serum) respectively) and also the reduction of the Stokes shift.

Setting [5] is: ex vivo, 48 hours after 1 nmol i.v.
Setting [6] is: SERONORM (human-based control serum).

Chain of Human Serum Albumin (HSA) (P02768 25-609): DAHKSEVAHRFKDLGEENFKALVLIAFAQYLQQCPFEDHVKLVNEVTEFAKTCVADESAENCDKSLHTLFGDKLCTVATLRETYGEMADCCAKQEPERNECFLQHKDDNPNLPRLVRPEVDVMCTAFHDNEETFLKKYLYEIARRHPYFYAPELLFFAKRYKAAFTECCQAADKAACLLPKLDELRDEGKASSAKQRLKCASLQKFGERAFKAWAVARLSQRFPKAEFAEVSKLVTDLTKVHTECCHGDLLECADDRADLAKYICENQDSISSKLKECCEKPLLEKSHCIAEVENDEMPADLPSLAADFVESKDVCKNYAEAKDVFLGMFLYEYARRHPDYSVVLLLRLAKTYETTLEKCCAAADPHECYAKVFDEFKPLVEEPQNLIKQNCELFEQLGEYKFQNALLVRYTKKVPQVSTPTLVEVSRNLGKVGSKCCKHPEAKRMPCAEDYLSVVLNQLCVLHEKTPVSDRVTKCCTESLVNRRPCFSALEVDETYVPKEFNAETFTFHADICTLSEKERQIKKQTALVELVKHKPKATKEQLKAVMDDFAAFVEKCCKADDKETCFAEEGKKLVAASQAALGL

For orientation: Kd means the constant that tells how readily two partners part at equilibrium. Read a high Kd as lower affinity. As for `CC[N+]1=C(/C=C/C=C/C=C2/N(CCCCCC(=O)NC[C@@H]3C[C@@H]4CC[C@H]5C(=O)N[C@@H](CCCNC(=N)N)C(=O)NCC(=O)N[C@@H](CC(=O)O)C(=O)N[C@H]3C(=O)N45)c3ccc4c(S(=O)(=O)O)cc(S(=O)(=O)O)cc4c3C2(C)C)C(C)(C)c2c1ccc1c(S(=O)(=O)[O-])cc(S(=O)(=O)O)cc21` [DA364], in series [1], the “extinction coefficient as percent of the theoretical value reported for Cy5.5 dye” value is reported as 83% and the molar extinction coefficient was found to be 208500 M⁻¹ cm⁻¹. Besides, the “tumor signal ratio with respect to the background” value in the series with A431 tumor (A431 tumor in vivo, 3 hours to 24 hours after injection) was “stable signal ratio”. For the same molecule, in the series with A431 tumor (setting [5]), the “fluorescence intensity in A431 tumors relative to heart and spleen (background)” value is “about 10 times”; the “fluorescence intensity in A431 tumors relative to liver and kidney” value is given as “comparable”. Further, the “Fluorescence Signal (Radiant Efficiency)” value with A431 tumor (excised A431 tumor ex vivo, 48 hours after 1 nmol i.v.) is 3.47E+08 p/s/(μW/cm^2). The “visualization of tumor under skin (FIG. 9)” value in the series with A431 tumor (low-integrin expressing tumor A431, in vivo fluorescence imaging) is given as “clear visualization”. The “tumor signal ratio with respect to the background” value in the series with U-87MG tumor (U-87 MG tumor in vivo, 3 hours to 24 hours after injection) was “stable signal ratio”. In the series with U-87MG tumor (setting [5]), the “fluorescence signal in U-87MG tumor relative to A431 tumor” value is listed as “about twice”. For the same molecule, in the series on U-87MG tumor (excised U87-MG tumor ex vivo, 48 hours after 1 nmol i.v.), the “Fluorescence Signal (Radiant Efficiency)” value is listed as 6.78E+08 p/s/(μW/cm^2). This molecule had a Kd in series [2] of 34.9 µM. The “association constant with HSA (ka)” value in series [2] (PBS, 1 h at room temperature) is 28670 ± 1140 M⁻¹. In series [3] (PBS), the “Φ% (fluorescence quantum yield)” value was 36.5% and 36.5 (SD 2.37) %. For the same molecule, in series [3] (setting [6]), the “Φ% (fluorescence quantum yield)” value is 57.5% and 57.5 (SD 1.26) %. For the same molecule, in series [4] (PBS), the “Stokes Shift” value worked out at 20 nm, the “emission maximum (em)” value worked out at 694 nm and the excitation maximum (ex) came out at 674 nm. Also, in series [4] (setting [6]), the “Stokes Shift” value is reported as 10 nm, the “emission maximum (em)” value is 704 nm and the excitation maximum (ex) worked out at 694 nm.

The record behind these values is patent publication US10682427B2, “Intra-operative imaging” (BRACCO IMAGING S.P.A., priority 2014, dated 2020).
